Values joined by “and” are separate entries in the source; they are usually repeats but may differ in a detail not shown here. Equal values may be shown once.
Tests used:
[1] = target: T1, recombinant human tau protein, isoform 2N4R (Tau-441) (human, UniProt P10636-8 1-441); assay: SPR, sdAb stored at 4 C, 30 days after IMAC purification
T1 construct: Bought

[2] = target: T1, recombinant human tau protein, isoform …; assay: SPR, sdAb stored at 4 C, 34 days after IMAC purification
[3] = target: T1, recombinant human tau protein, isoform …; assay: SPR, sdAb stored at 4 C, 42 days after IMAC purification
[4] = target: T1, recombinant human tau protein, isoform …; assay: SPR, sdAb stored at 4 C, 55 days after IMAC purification
[5] = target: T1, recombinant human tau protein, isoform …; assay: SPR (Biacore 3000), over immobilized Tau-441, duplicate injection
Procedure: (§1) Surface Plasmon Resonance (SPR): All binding assays for DH-Tau15 and Fc-Tau15 were carried out at 25° C. on a Biacore™ 3000 instrument (GE Healthcare). […] The running buffer for all SPR experiments was HBS-EP+ (10 mM HEPES, 150 mM NaCl, 3 mM EDTA, pH 7.4, 0.05% surfactant P20; GE Healthcare). The antibodies were injected at 20 μL/min for 2 min with a dissociation time of 30 min. Data was analyzed using the Biacore 3000 BIAevaluations software Version 4.1.

[6] = target: T1, recombinant human tau protein, isoform …; assay: SPR (Biacore T200), sdAb over immobilized antigen, steady state fit
Procedure: (§2) Surface Plasmon Resonance (SPR): All binding assays for Tau15 and Tau81 were carried out at 25° C. on a Biacore™ T200 instrument (GE Healthcare). […] The running buffer for all SPR experiments was HBS-EP+ (10 mM HEPES, 150 mM NaCl, 3 mM EDTA, pH 7.4, 0.05% surfactant P20; GE Healthcare). The sdAb were injected at 20 μL/min for 3 min with a dissociation time of 7 min for the test run, and at 20 μL/min for 2 min with a dissociation time of 6 min for the steady state analysis. Data was analyzed using the Biacore T200 evaluations software Version 2.0.
(§3) The KD value for the interaction between Tau15 and Tau81 sdAb and immobilized tau were derived by fitting the data to a steady state model and are reported in Table 1. […] Size exclusion chromatograms (FIG. 4) confirmed that Tau15 and Tau81 were monomeric.

[7] = target: hyperphosphorylated tau (tau-p; University of Victoria); assay: as above
Procedure: as §2, §3

[8] = target: T1, recombinant human tau protein, isoform …; assay: SPR (Biacore 3000), over immobilized Tau-441
Procedure: as §1

T1 sequence (P10636 other isoform, or with tags, fused parts or gaps limits assumed): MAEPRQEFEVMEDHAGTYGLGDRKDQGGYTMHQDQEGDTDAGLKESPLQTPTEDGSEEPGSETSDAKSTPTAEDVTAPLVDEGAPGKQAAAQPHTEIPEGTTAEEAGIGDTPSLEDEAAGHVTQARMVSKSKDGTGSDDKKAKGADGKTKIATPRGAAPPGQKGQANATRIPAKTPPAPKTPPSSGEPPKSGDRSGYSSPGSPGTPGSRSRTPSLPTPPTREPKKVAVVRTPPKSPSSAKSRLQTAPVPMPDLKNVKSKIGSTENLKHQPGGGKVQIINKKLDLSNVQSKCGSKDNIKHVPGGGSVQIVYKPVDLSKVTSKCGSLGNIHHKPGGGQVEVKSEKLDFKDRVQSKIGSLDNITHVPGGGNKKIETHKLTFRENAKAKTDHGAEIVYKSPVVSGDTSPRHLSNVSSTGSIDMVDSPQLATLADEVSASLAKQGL

Binder | Kd [1] [nM] | Kd [2] [nM] | Kd [3] [nM] | Kd [4] [nM] | koff [5] | Kd [6] [nM] | Kd [7] [nM] | fold slower off rate than monomeric Tau15 [8] [fold]
Tau15 (VHH, Llama single-domain antibody with VH (not VHH) hallmark residues in FR2; monomeric by SEC; expressed in E. coli periplasm; also called 3Tau15; sdAb Tau15; not shown: C-terminal cmyc and His6 tags (pSJF2H vector); OmpA leader removed on secretion) VHH: QVKLEESGGGLVQPGGSLRLSCAASGFTFSNFAMTWVRQSPGKGLEWVSAIDNDGGRTSYSDSVKGRFTISRDNAKNTLYLQMNSLKPEDTAMYYCAAMNLATRKWELWGQGTQVTVSS | 605 | 820 | 534 | 590 | 0.0632 s⁻¹ and 0.0667 s⁻¹ | 699 | 622 | –
dimeric human hinge Tau15 (DH-Tau15) (VHH, dimer through the hinge; also called dimeric hinge Tau15; hinge dimer) VHH: QVKLEESGGGLVQPGGSLRLSCAASGFTFSNFAMTWVRQSPGKGLEWVSAIDNDGGRTSYSDSVKGRFTISRDNAKNTLYLQMNSLKPEDTAMYYCAAMNLATRKWELWGQGTQVTVSS | – | – | – | – | 4.27e-05 s⁻¹ and 3.45e-05 s⁻¹ | – | – | ~1000
Tau81 (VHH, Llama single-domain antibody with VH hallmark residues in FR2; mainly monomeric by SEC; also called 7Tau81; sdAb Tau81; not shown: C-terminal cmyc and His6 tags (pSJF2H vector); OmpA leader removed on secretion) VHH: QVQLVESGGGLVQPGGSLKLSCAASGFTGDHYAMSWVRQAPGKGLEWVSTIYSYSPNTYYVDSVKDRFTISLDNAKNTLYLQMNSLKPEDTAVYYCAADLEVAEYYAYWGQGTQVTVSS | 105 | 175 | 660 | 507 | – | 820 | 745 | –
